Reference: US10801027B2, “Inhibitors of SRSF1 to treat neurodegenerative disorders” (University of Sheffield, priority 2016, dated 2020)
Changes are numbered by the printed parent chain. Values belong to the molecule of their own block, whether it stands above or below them.

Assays:
[1] = MND patients; cited from earlier work
NXF1 = biological target: T1, NXF1 (Mus musculus, UniProt Q99JX7); test: Anti-FLAG co-immunoprecipitation of endogenous NXF1 in N2A cells; format: binding; details: FLAG-tagged protein, 48 h
T1 construct: endogenous in cells; host or cells: Neuro-2a (N2A)
T1 sequence (Q99JX7 1-618): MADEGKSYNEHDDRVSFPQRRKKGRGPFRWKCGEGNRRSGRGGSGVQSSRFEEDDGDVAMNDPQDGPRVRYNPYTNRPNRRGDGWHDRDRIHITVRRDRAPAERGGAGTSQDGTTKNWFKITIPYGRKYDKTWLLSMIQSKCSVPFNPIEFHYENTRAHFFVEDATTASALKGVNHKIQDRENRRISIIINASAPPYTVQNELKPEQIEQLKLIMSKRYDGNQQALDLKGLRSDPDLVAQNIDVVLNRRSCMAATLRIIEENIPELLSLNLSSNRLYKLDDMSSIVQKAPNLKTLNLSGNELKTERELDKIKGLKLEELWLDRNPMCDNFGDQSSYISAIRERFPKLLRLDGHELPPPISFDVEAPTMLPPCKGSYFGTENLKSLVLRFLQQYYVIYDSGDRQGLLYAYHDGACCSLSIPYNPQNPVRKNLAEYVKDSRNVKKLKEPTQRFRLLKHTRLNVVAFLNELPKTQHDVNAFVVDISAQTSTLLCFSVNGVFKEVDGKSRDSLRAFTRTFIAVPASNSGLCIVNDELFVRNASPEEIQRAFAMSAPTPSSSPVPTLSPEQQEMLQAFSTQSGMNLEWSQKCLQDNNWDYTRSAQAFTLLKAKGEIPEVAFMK
Method: Cells were split into 1×10 cm plates/treatment (1.5×10^6 cells/plate) and transfected with 15 μg p3×FLAG, p3×FLAG/SRSF1 (11-196), p3×FLAG/SRSF1 (11-196)-m2 or p3×FLAG/SRSF1(11-196)-m4 using 3 μg PEI/1 μg DNA and one tenth medium volume OptiMEM.
Proteins were extracted from Neuro-2a cells 48 hours after transfection. Cells were briefly washed in ice cold PBS, scraped into 500 μl ice cold lysis buffer, passed through a 21G gauge needle 10 times and left to lyse on ice for 10 minutes. Lysed cells were cleared by centrifugation at maximum speed at 4° C. for five minutes and protein extracts were quantified using Bradford Reagent. 2 mg of total protein in 1 ml lysis buffer was incubated with 30 μl anti-FLAG® M2 affinity resin slurry (Sigma A2220) (which had been blocked overnight with 1% BSA in IP lysis buffer) for 2 hours at 4° C. on a rotating wheel. […] 30 μg total protein and 15 μl captured protein complexes were resolved by SDS-PAGE, electroblotted onto nitrocellulose membrane and probed using FLAG, NXF1 clone 53H8 [1:2000] (Abcam ab50609) and […]-tubulin.

[2] = system: poly-Gly-Pro and poly-Gly-Ala DPRs; test: Western blot of RAN-translated DPRs in N2A cells; format: cell-based, mouse; details: G4C2×38 or C4G2×39 constructs, 72 h
Method: Neuro-2a (ATCC) cells were cultured in Dulbecco's Modified Eagle Medium (Sigma) supplemented with 10% fetal bovine serum [FBS] (Gibco), 5 U/ml Penstrep (Lonza) and 5 mM sodium pyruvate. Cells were maintained in a […] incubator with 5% CO2. 75,000 Neuro-2a cells were split into each well of 24-well plates and transfected for 72 h with 500 ng pcDNA6.2-GW/EmGFP-Control miR RNAi (ThermoFisher) or pcDNA6.2-GW/EmGFP-mouse SRSF1 miR1+2 RNAi and 200 ng pcDNA 3.1/RAN-G4C2×38-sense or RAN-C4G2×39-antisense using 3 μg PEI/1 μg DNA and one tenth medium volume OptiMEM (ThermoFisher).
HEK cells were transfected for 72 h with 650 ng pcDNA6.2-GW/EmGFP-Control miRNA, pCDNA6.2-GW/EmGFP-human SRSF1 miR1+2 RNAi or LV-EmGFP-human SRSF1 miR1+2 RNAi constructs and 50 ng p3×FLAG/human-SRSF1 using 3.5 μg PEI/ml media and one tenth medium volume of OptiMEM. Neuro-2a cells were split into each well of 24-well plates (75,000 cells/well) and transfected for 72 h with 350 ng pcDNA6.2-GW/EmGFP-Control miR RNAi (ThermoFisher), pcDNA6.2-GW/EmGFP-mouse SRSF1 miR1+2 RNAi, p3×FLAG, p3×FLAG/SRSF1 (11-196), p3×FLAG/SRSF1 (11-196)-m2 or p3×FLAG/SRSF1 (11-196)-m4 and 350 ng pcDNA 3.1/RAN-G4C2×38-sense or RAN-C4G2×39-antisense using 3 μg PEI/1 μg DNA and one tenth medium volume OptiMEM.
Proteins were extracted from HEK or Neuro-2a cells 72 hours after transfection. […] Protein extracts were quantified using Bradford Reagent (BioRAD), resolved by SDS-PAGE, electroblotted onto nitrocellulose membrane and probed using the relevant primary antibody. […] (kindly received from Prof Stuart Pickering Brown) primary antibodies were detected with horseradish peroxidase (HRP)-conjugated rabbit secondary antibody [1:5000 dilution] […] (kindly provided from Prof Dieter Edbauer) primary antibodies were detected using HRP-conjugated mouse secondary antibody [1:5000 dilution] […] For dot blot analysis, 50 μg total protein extracts prepared in ice-cold lysis buffer were loaded onto a nitrocellulose membrane using a microfiltration apparatus (Biorad) and analysed by western immunoblotting as previously described.

Molecule: Nc1nc2ccc(OC(F)(F)F)cc2s1 [riluzole]
life extension [1]: around 6 months

co-immunoprecipitation of endogenous NXF1 (NXF1): specifically immunoprecipitated
B1: SRSF1-m2: FLAG-tagged SRSF1 11-196 double R117,118A mutant (protein)
chain: AGNNDCRIYVGNLPPDIRTKDIEDVFYKYGAIRDIDLKNRRGGPPFAFVEFEDPRDAEDAVYGRDGYDYDGYRLRVEFPRSGRGTGRGGGGGGGGGAPRGRYGPPSAASENRVVVSGLPPSGSWQDLKDHMREAGDVCYADVYRDGTGVVEFVRKEDMTYAVRKLDNTKFRSHEGETAYIRVKVDG
modifications: left off: small tags and cut ends
notes: FLAG-tagged SRSF1 11-196 double R117,118A mutant
effect on RAN translation / production of sense and antisense DPRs [2]: little effect

co-immunoprecipitation of endogenous NXF1 (NXF1): specifically immunoprecipitated
B2: SRSF1 11-196 wild type: FLAG-tagged SRSF1 amino-acids 11-196 wild type (protein)
chain: B1 chain with A107R, A108R
modifications: left off: small tags and cut ends
notes: FLAG-tagged SRSF1 amino-acids 11-196 wild type
effect on RAN translation / production of sense and antisense DPRs [2]: no
